Fraction ligated data for 39 variants are collected here from the supplement of paper PMC6755084.

B1: minF1; the commonest letter at each place (parent)
chain: GAGACCGCAACTGAAAAGTTGTTATCAGAAATGGATGGGTTGAATTTCTGCACGTAGAAGCAAAAGGC

The data set covers variants of B1. Kind of data set: fraction ligated after 30 min (ligated reads / total reads); higher = more ligase activity. To be noted: with F1*subA RNA substrate (template-directed ligation), 42 °C. Put shortly: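 Oligo-pool templates of minimized ligase ribozyme variants were PCR-amplified, T7-transcribed and gel-purified. Ligated and unligated RNAs were gel-separated, reverse transcribed with barcoded primers, and MiSeq-sequenced; core bases were filtered at quality ≥30. Fraction ligated per variant was ligated reads over total reads.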
In the case of GAGACCGCAACTGAAAAGTTGTTATCACAAATGGAAGGGTTGAATTTCTGCACGTAGAAGCAAAAGGC [G28C T36A], the fraction ligated worked out at 0.0306.

Take GAGACCGCAACTGAAAAGTTGTTATCACAAATGGACGGGTTGAATTTCTGCACGTAGAAGCAAAAGGC [G28C T36C]: the fraction ligated worked out at 0.0172.

For the variant GAGACCGCAACTGAAAAGTTGTTATCACAAATGGAGGGGTTGAATTTCTGCACGTAGAAGCAAAAGGC [G28C T36G], the fraction ligated was found to be 0.0324.

As for GAGACCGCAACTGAAAAGTTGTTATCAGCAATGGATGGGTTGAATTTCTGCACGTAGAAGCAAAAGGC [A29C], the fraction ligated came to 0.823.

For the variant GAGACCGCAACTGAAAAGTTGTTATCATAAATGGATGGGTTGATTTTCTGCACGTAGAAGCAAAAGGC [G28T A44T], the fraction ligated is 0.794.

For the variant GAGACCGCAACTGAAAAGTTGTTATCATAAATGGATGGGTTGAGTTTCTGCACGTAGAAGCAAAAGGC [G28T A44G], the fraction ligated came out at 0.759.

On to GAGACCGCAACTGAAAAGTTGTTATCATAAATGGATGGGTTGACTTTCTGCACGTAGAAGCAAAAGGC [G28T A44C], for which the fraction ligated came out at 0.685.

GAGACCGCAACTGAAAAGTTGTTATCATAAATGGGTGGGTTGAATTTCTGCACGTAGAAGCAAAAGGC [G28T A35G]: the fraction ligated is 0.437.

On to GAGACCGCAACTGAAAAGTTGTTATCATAAATGGCTGGGTTGAATTTCTGCACGTAGAAGCAAAAGGC [G28T A35C], for which the fraction ligated was determined as 0.0723.

GAGACCGCAACTGAAAAGTTGTTATCATAAATGGTTGGGTTGAATTTCTGCACGTAGAAGCAAAAGGC [G28T A35T]: the fraction ligated came to 0.051.

With GAGACCGCAACTGAAAAGTTGTTATCATAAAGGGATGGGTTGAATTTCTGCACGTAGAAGCAAAAGGC [G28T T32G], the fraction ligated worked out at 0.0263.

Consider GAGACCGCAACTGAAAAGTTGTTATCATAAACGGATGGGTTGAATTTCTGCACGTAGAAGCAAAAGGC [G28T T32C], for which the fraction ligated was 0.0326.

With GAGACCGCAACTGAAAAGTTGTTATCATAAAAGGATGGGTTGAATTTCTGCACGTAGAAGCAAAAGGC [G28T T32A], the fraction ligated was 0.0381.

Consider GAGACCGCAACTGAAAAGTTGTTATCAGCAATCGATGGGTTGAATTTCTGCACGTAGAAGCAAAAGGC [A29C G33C], for which the fraction ligated worked out at 0.743.

For the variant GAGACCGCAACTGAAAAGTTGTTATCAGCAATTGATGGGTTGAATTTCTGCACGTAGAAGCAAAAGGC [A29C G33T], the fraction ligated was 0.526.

Take GAGACCGCAACTGAAAAGTTGTTATCAGCAATAGATGGGTTGAATTTCTGCACGTAGAAGCAAAAGGC [A29C G33A]: the fraction ligated came to 0.784.

Take GAGACCGCAACTGAAAAGTTGTTATCAGCAATGGACGGGTTGAATTTCTGCACGTAGAAGCAAAAGGC [A29C T36C]: the fraction ligated is 0.0172.

GAGACCGCAACTGAAAAGTTGTTATCAGCAATGGAAGGGTTGAATTTCTGCACGTAGAAGCAAAAGGC [A29C T36A]: the fraction ligated turned out to be 0.0288.

Take GAGACCGCAACTGAAAAGTTGTTATCAGCAATGGATGGGTTAAATTTCTGCACGTAGAAGCAAAAGGC [A29C G42A]: the fraction ligated was 0.283.

As to GAGACCGCAACTGAAAAGTTGTTATCAGCAATGGATGGGTTTAATTTCTGCACGTAGAAGCAAAAGGC [A29C G42T], the fraction ligated is 0.0826.

In the case of GAGACCGCAACTGAAAAGTTGTTATCAGCAATGGATGGGTTCAATTTCTGCACGTAGAAGCAAAAGGC [A29C G42C], the fraction ligated was 0.00616.

Turning to GAGACCGCAACTGAAAAGTTGTTATCATAAATGGATGGGTTTAATTTCTGCACGTAGAAGCAAAAGGC [G28T G42T], the fraction ligated was 0.142.

GAGACCGCAACTGAAAAGTTGTTATCATAAATGGATGGGTTCAATTTCTGCACGTAGAAGCAAAAGGC [G28T G42C]: the fraction ligated came to 0.017.

Turning to GAGACCGCAACTGAAAAGTTGTTATCATAAATGGATGGGTTAAATTTCTGCACGTAGAAGCAAAAGGC [G28T G42A], the fraction ligated was 0.359.

Take GAGACCGCAACTGAAAAGTTGTTATCATAAATGGATGGGTTGAATTTCTGCACGTAGAAGCAAAAGGC [G28T]: the fraction ligated was 0.806.

GAGACCGCAACTGAAAAGTTGTTATCAGCACTGGATGGGTTGAATTTCTGCACGTAGAAGCAAAAGGC [A29C A31C]: the fraction ligated came to 0.791.

Consider GAGACCGCAACTGAAAAGTTGTTATCAGCAGTGGATGGGTTGAATTTCTGCACGTAGAAGCAAAAGGC [A29C A31G], for which the fraction ligated stood at 0.808.

With GAGACCGCAACTGAAAAGTTGTTATCAGCATTGGATGGGTTGAATTTCTGCACGTAGAAGCAAAAGGC [A29C A31T], the fraction ligated came to 0.842.

Turning to GAGACCGCAACTGAAAAGTTGTTATCATAAATGGACGGGTTGAATTTCTGCACGTAGAAGCAAAAGGC [G28T T36C], the fraction ligated was determined as 0.0288.

As for GAGACCGCAACTGAAAAGTTGTTATCATAAATGGAAGGGTTGAATTTCTGCACGTAGAAGCAAAAGGC [G28T T36A], the fraction ligated was 0.0434.

As for GAGACCGCAACTGAAAAGTTGTTATCATAAATGGAGGGGTTGAATTTCTGCACGTAGAAGCAAAAGGC [G28T T36G], the fraction ligated amounted to 0.0726.

For the variant GAGACCGCAACTGAAAAGTTGTTATCACAAAAGGATGGGTTGAATTTCTGCACGTAGAAGCAAAAGGC [G28C T32A], the fraction ligated came to 0.0353.

With GAGACCGCAACTGAAAAGTTGTTATCACAAAGGGATGGGTTGAATTTCTGCACGTAGAAGCAAAAGGC [G28C T32G], the fraction ligated is 0.0241.

As for GAGACCGCAACTGAAAAGTTGTTATCACAAACGGATGGGTTGAATTTCTGCACGTAGAAGCAAAAGGC [G28C T32C], the fraction ligated was found to be 0.0192.

For the variant GAGACCGCAACTGAAAAGTTGTTATCAGCAATGGTTGGGTTGAATTTCTGCACGTAGAAGCAAAAGGC [A29C A35T], the fraction ligated is 0.012.

Take GAGACCGCAACTGAAAAGTTGTTATCAGCAATGGGTGGGTTGAATTTCTGCACGTAGAAGCAAAAGGC [A29C A35G]: the fraction ligated was found to be 0.189.

Take GAGACCGCAACTGAAAAGTTGTTATCAGCAATGGCTGGGTTGAATTTCTGCACGTAGAAGCAAAAGGC [A29C A35C]: the fraction ligated is 0.00361.

Take GAGACCGCAACTGAAAAGTTGTTATCATACATGGATGGGTTGAATTTCTGCACGTAGAAGCAAAAGGC [G28T A30C]: the fraction ligated was found to be 0.819.

As to GAGACCGCAACTGAAAAGTTGTTATCATATATGGATGGGTTGAATTTCTGCACGTAGAAGCAAAAGGC [G28T A30T], the fraction ligated amounted to 0.832.
